In assay [1] the target is MtrE, His-tagged (wild type) (N. gonorrhoeae FA19) (UniProt Q51006). Nature of the assay: native MS.
Assay [2] has the same target. The assay is described as follows: ITC. In general terms: Isothermal titration calorimetry measures the heat released or taken up as one component is titrated into another.
For assay [3], the target named is MtrE E434K, His-tagged (N. gonorrhoeae FA19) (UniProt Q51006). The assay is described as follows: ITC.
For a further assay, the target named is T1, MtrD, His-tagged (N. gonorrhoeae FA19, UniProt Q51073 1-1067).
T1 sequence (looked up): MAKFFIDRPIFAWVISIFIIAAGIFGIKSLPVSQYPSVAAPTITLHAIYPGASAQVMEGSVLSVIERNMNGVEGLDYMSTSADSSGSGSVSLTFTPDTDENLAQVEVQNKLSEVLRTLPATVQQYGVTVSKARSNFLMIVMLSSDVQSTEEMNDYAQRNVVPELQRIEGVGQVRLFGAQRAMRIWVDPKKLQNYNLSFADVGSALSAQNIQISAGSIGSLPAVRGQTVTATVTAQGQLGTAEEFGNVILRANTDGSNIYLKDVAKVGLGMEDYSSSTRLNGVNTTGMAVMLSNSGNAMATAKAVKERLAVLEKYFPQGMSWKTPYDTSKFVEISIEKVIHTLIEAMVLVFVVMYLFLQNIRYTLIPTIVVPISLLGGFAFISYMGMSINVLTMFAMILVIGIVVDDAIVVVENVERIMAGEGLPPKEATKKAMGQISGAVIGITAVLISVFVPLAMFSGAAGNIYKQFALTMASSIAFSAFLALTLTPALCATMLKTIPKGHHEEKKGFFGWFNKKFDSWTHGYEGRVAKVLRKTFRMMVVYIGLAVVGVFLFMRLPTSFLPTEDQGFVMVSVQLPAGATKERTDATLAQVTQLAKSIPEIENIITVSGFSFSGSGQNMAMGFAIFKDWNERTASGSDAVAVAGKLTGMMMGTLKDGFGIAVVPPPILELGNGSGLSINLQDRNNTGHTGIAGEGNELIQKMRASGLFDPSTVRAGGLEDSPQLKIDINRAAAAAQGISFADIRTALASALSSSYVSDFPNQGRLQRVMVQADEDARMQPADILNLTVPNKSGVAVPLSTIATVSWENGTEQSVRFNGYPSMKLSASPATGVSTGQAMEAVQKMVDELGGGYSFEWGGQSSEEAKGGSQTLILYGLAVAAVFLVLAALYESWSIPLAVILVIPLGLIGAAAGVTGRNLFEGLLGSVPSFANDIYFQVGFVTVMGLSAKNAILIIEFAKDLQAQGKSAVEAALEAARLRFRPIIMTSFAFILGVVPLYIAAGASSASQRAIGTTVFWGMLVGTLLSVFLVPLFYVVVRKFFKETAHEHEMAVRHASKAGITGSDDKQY
Nature of the assay: ITC.

Consider 3 molecules from article PMC3037662 (The Journal of Biological Chemistry, 2010).

In assay [1], “MtrE, His-tagged (wild type) (from UniProt Q51006 1-467) (natural protein)” returned a stoichiometry N of 3.

B1: MtrC α-helical coiled-coil hairpin domain (residues 103–183), His-tagged (domain or fragment)
chain: IDSSTYEAGLESARAQLATAQATLAKADADLARYKPLVSADAISKQEYDAAVTAKRSAEASVKAAQAAIKSAGINLNRSRI
Consider B1, for which, in assay [2], the Ka1 (site 1 of a two-site fit) amounted to 460000 M⁻¹, the Ka2 (site 2 of a two-site fit) is 3200 M⁻¹, the Kd of the first (high-affinity) site of a two-site fit is 2200 nM and the dH1 (site 1 of a two-site fit) was -12 kcal/mol. In assay [2], this molecule registered a dH2 (site 2 of a two-site fit) of -62 kcal/mol and a dH of the first site of a two-site fit of -11 kcal/mol. In assay [3], this molecule gave a Ka of 8.2e+06 M⁻¹, an equilibrium dissociation constant (Kd) of 130 nM and a dH of -4.12 kcal/mol.

B2: NT-MtrC, N-terminal-truncated (Δ1–34) MtrC, His-tagged (domain or fragment, N. gonorrhoeae FA19, UniProt P43505 35-412, looked up)
chain: GQPAGREAPAPVVGVVTVHPQTVALTVELPGRLESLRTADVRAQVGGIIQKRLFQEGSYVRAGQPLYQIDSSTYEAGLESARAQLATAQATLAKADADLARYKPLVSADAISKQEYDAAVTAKRSAEASVKAAQAAIKSAGINLNRSRITAPISGFIGQSKVSEGTLLNAGDTTVLATIRQTNPMYVNVTQSASEVMKLRRQIAEGKLLAADGAIAVGIKFDDGTVYPEKGRLLFADPTVDESTGQITLRAAVSNDQNILMPGLYVRVLMDQVAADNAFIVPQQAVTRGAKDTVMIVNAQGGMEPREVTVAQQQGTNWIVTSGLKDGDKVVVEGISIAGMTGAKKVTPKEWAPSENQAAAPQAGVQTASEAKPASEAK
In the assay with MtrD, His-tagged, B2 displayed a Ka of 1.2e+06 M⁻¹, a Kd of 800 ± 700 nM and a dH of 1.41 ± 0.318 kcal/mol. In assay [2], this molecule yielded a Kd of 9800 nM and a dH of -6.84 kcal/mol.

By stoichiometry N is commonly meant the number of molecules, sites or subunits per partner or assembly. Broadly, the Kd is the equilibrium constant for the complex coming apart. High values mean a looser complex, low ones a tighter complex.
